Measured values from patent publication US20230416313A1 (NAVIGO PROTEINS, published 2023).

Molecular target: T1, recombinant human complement factor H (CFH), isolated from moss (human, UniProt P08603 19-1231)
T1 construct: also called moss-FH; recombinant CFH
Test: affinity chromatography, ligand on Praesto Epoxy 85, CFH supernatant bound in PBS pH 7.3, eluted at pH 3.5
Protocol: Coupling parameter. Proteins were purified to homogeneity and coupled to resin for AIC experiments. […] Variants were successfully coupled to epoxy-activated Praesto 85 resin.
AIC experiments. Capturing and Elution. For initial column performance tests, resins were packed into superformance 50-5 column housing. Phosphate buffered saline pH 7.3 (PBS) was used to equilibrate the column, followed by applying of 10 mL of recombinant CFH expression supernatant (titer: 0.47 mg/mL) at 6 min residence time. Resin was then washed with PBS for 15 column volumes. Elution was performed at pH 3.5 using 100 mM Citric acid buffer followed by stripping of residual bound CFH at pH 2.0. Elution at pH 3.5 and pH 2.0 was calculated by UV 280 nm absorption.

T1 sequence (P08603 19-1231 limits assumed): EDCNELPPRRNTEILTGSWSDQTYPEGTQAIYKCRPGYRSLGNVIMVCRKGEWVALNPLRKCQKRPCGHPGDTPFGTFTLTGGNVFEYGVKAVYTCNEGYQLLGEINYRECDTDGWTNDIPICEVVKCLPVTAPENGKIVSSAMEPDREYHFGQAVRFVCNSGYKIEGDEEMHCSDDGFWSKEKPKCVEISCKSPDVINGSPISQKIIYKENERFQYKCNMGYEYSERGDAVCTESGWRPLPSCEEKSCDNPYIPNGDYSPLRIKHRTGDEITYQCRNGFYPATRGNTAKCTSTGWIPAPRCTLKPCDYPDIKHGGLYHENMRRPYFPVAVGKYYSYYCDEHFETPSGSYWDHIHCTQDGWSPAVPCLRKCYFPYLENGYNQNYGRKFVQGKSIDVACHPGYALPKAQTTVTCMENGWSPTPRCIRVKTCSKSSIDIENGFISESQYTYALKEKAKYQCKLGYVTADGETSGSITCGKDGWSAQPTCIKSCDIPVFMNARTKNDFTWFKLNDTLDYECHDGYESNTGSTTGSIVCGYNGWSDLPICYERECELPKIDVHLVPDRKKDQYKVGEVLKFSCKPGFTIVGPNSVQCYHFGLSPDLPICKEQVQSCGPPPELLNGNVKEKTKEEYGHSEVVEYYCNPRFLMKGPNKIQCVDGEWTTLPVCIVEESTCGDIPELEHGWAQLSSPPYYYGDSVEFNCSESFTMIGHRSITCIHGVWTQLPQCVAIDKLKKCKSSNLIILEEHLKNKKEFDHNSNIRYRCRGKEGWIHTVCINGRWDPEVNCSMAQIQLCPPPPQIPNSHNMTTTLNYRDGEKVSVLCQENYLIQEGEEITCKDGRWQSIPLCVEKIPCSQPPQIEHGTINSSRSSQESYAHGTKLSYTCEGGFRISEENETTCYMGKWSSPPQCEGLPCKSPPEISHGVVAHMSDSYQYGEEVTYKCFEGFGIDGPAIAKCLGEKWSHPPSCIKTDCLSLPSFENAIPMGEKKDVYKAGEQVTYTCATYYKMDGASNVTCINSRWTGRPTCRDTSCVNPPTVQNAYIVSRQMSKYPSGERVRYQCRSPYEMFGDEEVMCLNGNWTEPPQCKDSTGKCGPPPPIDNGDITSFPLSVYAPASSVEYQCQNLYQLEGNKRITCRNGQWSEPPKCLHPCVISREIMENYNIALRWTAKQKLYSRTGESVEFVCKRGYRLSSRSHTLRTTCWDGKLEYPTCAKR

Binder	Step Yield of CFH at pH 3.5 (percentage elution) [%]
CFH binding protein of SEQ ID NO: 20 (CID 209864) (designed binder, Coupled to Praesto Epoxy 85 resin) IAAKFDEAQQAAFYEILHLPNLTELQRNHFIQTLRDDPSVSLWVLGLAQLLNDSQAPKIAAKFDEAQQHAFYTILHLENLTEEQRNAFIQSLRDDPSVSLEVLGEAIKLNISQAPK	96
CFH binding protein of SEQ ID NO: 5 (CID 209447) (designed binder, Coupled to Praesto Epoxy 85 resin) NAAEADDAQVSAAMEIIMLPNLTLEQAHSFIESLYRDPSVSKEVLGEAQKLNDSQAPK	91
